2 compounds from article PMC11751051 (Frontiers in Molecular Biosciences, 2025) can be followed below.

For assay [1], the target named is T1, GFP-OhyA (Staphylococcus aureus, UniProt Q2G1P3, M1A).
T1 construct: gene SAOUHSC_00061
In words: biochemical.

The target of assay [2] is GFP-OhyA (green fluorescent protein-oleate hydratase chimeric protein) (Staphylococcus aureus). The assay can be described thus: SEC-MALS; Superose 6 Increase 10/300 GL; 20 mM Tris, 200 mM NaCl, pH 7.6; 100 uL of GFP-OhyA (2 mg/mL) injected at 0.5 mL/min, 25 °C.

For the compound `CCCCCCCC/C=C\CCCCCCCC(=O)OC[C@H](COP(=O)(O)OCC(O)CO)OC(=O)CCCCCCC/C=C\CCCCCCCC` (stereo partly drawn) [DOPG], in assay [1], the Kd was found to be 79.9 nM.

In assay [2], “GFP-OhyA (green fluorescent protein-oleate hydratase chimeric protein) (enzyme)” yielded a percent dimer of 80.6% and a stoichiometry N of 2.
